From patent publication US20250304667A1 (ALLERGAN, published 2025)
Read-outs that look alike come from different tables or passages of the source.

What was measured:
[1] = molecular target: insoluble C5b-9 complex deposited on IgM-coated ELISA plates after complement activation of normal human serum (human) (UniProt P01031); test: ELISA on C5b-9 deposited on IgM-coated plates from 2% normal human serum, anti-mouse HRP, Abs 450nm (Example 7)
[2] = molecular target: Soluble C5b-9 (CompTech, A127) (UniProt P01031); test: BLI (Octet), antibody amine-coupled to AR2G tips, soluble C5b-9 at 30 ug/ml, 300 s association (Example 8)
[3] = molecular target: Soluble C5b-9 (CompTech, A127) (UniProt P01031); test: as above; remark: listed apart in the source
[4] = molecular target: T1, human complement Component 5 (C5) (human, UniProt P01031 19-1676, limits assumed); test: cell-based or functional assay
[5] = molecular target: T1, human complement Component 5 (C5); test: cell-based or functional assay; remark: listed apart in the source
[6] = molecular target: T1, human complement Component 5 (C5); test: cell-based or functional assay; remark: listed apart in the source
[7] = molecular target: T1, human complement Component 5 (C5); test: cell-based or functional assay; remark: listed apart in the source

T1 sequence (P01031 19-1676 limits assumed): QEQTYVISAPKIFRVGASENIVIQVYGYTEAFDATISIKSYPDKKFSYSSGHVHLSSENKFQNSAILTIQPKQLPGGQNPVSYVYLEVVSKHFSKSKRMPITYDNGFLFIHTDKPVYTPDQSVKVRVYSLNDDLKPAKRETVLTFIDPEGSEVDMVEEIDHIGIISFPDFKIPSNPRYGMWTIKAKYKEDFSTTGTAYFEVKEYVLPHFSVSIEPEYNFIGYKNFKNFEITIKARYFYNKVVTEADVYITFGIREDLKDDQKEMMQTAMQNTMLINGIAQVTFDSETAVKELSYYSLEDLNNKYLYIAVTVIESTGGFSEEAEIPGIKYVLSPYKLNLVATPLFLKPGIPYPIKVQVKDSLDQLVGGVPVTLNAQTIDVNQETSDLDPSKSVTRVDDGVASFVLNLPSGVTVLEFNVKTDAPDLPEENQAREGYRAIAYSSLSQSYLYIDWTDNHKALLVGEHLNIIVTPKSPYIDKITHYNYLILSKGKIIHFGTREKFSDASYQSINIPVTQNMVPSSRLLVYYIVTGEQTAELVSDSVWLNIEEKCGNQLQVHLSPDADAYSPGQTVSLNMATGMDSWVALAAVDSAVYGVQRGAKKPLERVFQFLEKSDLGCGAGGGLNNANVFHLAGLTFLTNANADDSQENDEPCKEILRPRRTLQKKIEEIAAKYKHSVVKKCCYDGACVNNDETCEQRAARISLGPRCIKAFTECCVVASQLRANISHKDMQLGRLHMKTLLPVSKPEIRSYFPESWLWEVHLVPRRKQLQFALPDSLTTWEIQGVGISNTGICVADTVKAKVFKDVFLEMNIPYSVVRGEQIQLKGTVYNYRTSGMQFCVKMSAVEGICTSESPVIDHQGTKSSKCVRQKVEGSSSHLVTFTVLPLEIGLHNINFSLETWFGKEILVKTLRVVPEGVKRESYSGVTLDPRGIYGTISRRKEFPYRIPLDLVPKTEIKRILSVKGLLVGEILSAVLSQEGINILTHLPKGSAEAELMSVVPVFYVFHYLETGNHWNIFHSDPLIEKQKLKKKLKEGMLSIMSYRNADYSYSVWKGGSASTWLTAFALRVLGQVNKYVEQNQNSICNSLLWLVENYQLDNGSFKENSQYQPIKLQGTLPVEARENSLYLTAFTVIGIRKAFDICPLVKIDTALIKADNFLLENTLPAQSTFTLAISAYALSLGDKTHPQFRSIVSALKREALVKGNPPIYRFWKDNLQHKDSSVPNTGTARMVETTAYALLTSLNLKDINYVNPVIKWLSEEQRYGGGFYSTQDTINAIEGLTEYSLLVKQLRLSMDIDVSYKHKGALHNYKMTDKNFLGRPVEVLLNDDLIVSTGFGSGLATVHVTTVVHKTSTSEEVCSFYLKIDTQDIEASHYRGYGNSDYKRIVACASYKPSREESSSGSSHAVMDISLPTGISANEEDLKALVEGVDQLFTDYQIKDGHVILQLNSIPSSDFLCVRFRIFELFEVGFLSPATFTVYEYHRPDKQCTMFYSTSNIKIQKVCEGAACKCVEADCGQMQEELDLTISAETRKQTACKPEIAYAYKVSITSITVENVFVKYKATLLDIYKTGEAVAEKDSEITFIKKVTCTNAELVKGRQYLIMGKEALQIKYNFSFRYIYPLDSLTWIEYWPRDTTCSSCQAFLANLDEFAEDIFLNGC

Row | Molecule | IC50 (read off the curve), % Inhibition [4] | IC50 (read off the curve), OD (450nM) [5] | IC50 (read off the curve), % Inhibition [6] | IC50 (read off the curve), OD (450nM) [7] | further results
1 | anti-C5b-9 mouse monoclonal antibody (Quidel A239) | – | – | – | – | EC50 (read off the curve) [1]: 0.04 mg/L; Displacement @ 300s. [2]: 0.86 nm; Displacement @ 300s. [3]: 0.67 nm
2 | H1L3-IgG (antibody, V domains shown) VH: QVQLVQSGAEVKKPGASVKVSCKASGYTFTDEYMNWVRQAPGQSLEWMGYINPNNGGADYNQKFQGRVTMTVDQSISTAYMELSRLRSDDTAVYFCARLGYSNPYFDFWGQGTLVTVSS VL: DIVLTQSPSFLSASVGDRVTITCQASQDVNTAVAWYLQKPGKSPKLLIYWASTRHTGVPARFTGSGSGTDYTLTISSLQPEDFAVYFCQQHHVSPWTFGGGTKVEIK | ~3 mg/L | ~0.5 mg/L | – | – | –
3 | H5L3-Fab (Fab, V domains shown) VH: QVQLKQSGAEVKKPGASVKVSCKASGYTFTDEYMNWVRQAPGKSLEWMGYINPNNGGADYNQKFQGRVTMTVDQSISTAYMELSRLRSDDTAVYFCARLGYSNPYFDFWGQGTLVTVSS VL: DIVLTQSPSFLSASVGDRVTITCQASQDVNTAVAWYLQKPGKSPKLLIYWASTRHTGVPARFTGSGSGTDYTLTISSLQPEDFAVYFCQQHHVSPWTFGGGTKVEIK | – | – | ~2 mg/L | ~0.4 mg/L | –
4 | H1L4-Fab (Fab, V domains shown) VH: QVQLVQSGAEVKKPGASVKVSCKASGYTFTDEYMNWVRQAPGQSLEWMGYINPNNGGADYNQKFQGRVTMTVDQSISTAYMELSRLRSDDTAVYFCARLGYSNPYFDFWGQGTLVTVSS VL: DIVLTQSPATLSLSPGERATLSCRASQDVNTAVAWYQQKPGKSPKLLIYWASTRHTGVPARFTGSGSGTDYTLTISSLQPEDFAVYFCQQHHVSPWTFGGGTKVEIK | – | – | ~2 mg/L | ~0.4 mg/L | –

More lines, main results first:

Row | IC50 (read off the curve), % Inhibition [4] | IC50 (read off the curve), OD (450nM) [5] | IC50 (read off the curve), % Inhibition [6] | IC50 (read off the curve), OD (450nM) [7] | Molecule | further results
5 | – | – | – | ~0.5 mg/L | H3L3-Fab (Fab, V domains shown) VH: QVQLVQSGAEVKKPGASVKVSCKASGYTFTDEYMNWVRQAPGQSLEWMGYINPNNGGADYNPSLKSRVTISVDQSISTAYMELSRLRSDDTAVYFCARLGYSNPYFDFWGQGTLVTVSS VL: DIVLTQSPSFLSASVGDRVTITCQASQDVNTAVAWYLQKPGKSPKLLIYWASTRHTGVPARFTGSGSGTDYTLTISSLQPEDFAVYFCQQHHVSPWTFGGGTKVEIK | –
6 | – | – | ~2 mg/L | ~0.4 mg/L | H5L4-Fab (Fab, V domains shown) VH: QVQLKQSGAEVKKPGASVKVSCKASGYTFTDEYMNWVRQAPGKSLEWMGYINPNNGGADYNQKFQGRVTMTVDQSISTAYMELSRLRSDDTAVYFCARLGYSNPYFDFWGQGTLVTVSS VL: DIVLTQSPATLSLSPGERATLSCRASQDVNTAVAWYQQKPGKSPKLLIYWASTRHTGVPARFTGSGSGTDYTLTISSLQPEDFAVYFCQQHHVSPWTFGGGTKVEIK | –
7 | ~3 mg/L | ~0.5 mg/L | – | – | H5L4-IgG (antibody, V domains shown) VH: QVQLKQSGAEVKKPGASVKVSCKASGYTFTDEYMNWVRQAPGKSLEWMGYINPNNGGADYNQKFQGRVTMTVDQSISTAYMELSRLRSDDTAVYFCARLGYSNPYFDFWGQGTLVTVSS VL: DIVLTQSPATLSLSPGERATLSCRASQDVNTAVAWYQQKPGKSPKLLIYWASTRHTGVPARFTGSGSGTDYTLTISSLQPEDFAVYFCQQHHVSPWTFGGGTKVEIK | –
8 | ~3 mg/L | ~0.5 mg/L | – | – | H1L4-IgG (antibody, V domains shown) VH: QVQLVQSGAEVKKPGASVKVSCKASGYTFTDEYMNWVRQAPGQSLEWMGYINPNNGGADYNQKFQGRVTMTVDQSISTAYMELSRLRSDDTAVYFCARLGYSNPYFDFWGQGTLVTVSS VL: DIVLTQSPATLSLSPGERATLSCRASQDVNTAVAWYQQKPGKSPKLLIYWASTRHTGVPARFTGSGSGTDYTLTISSLQPEDFAVYFCQQHHVSPWTFGGGTKVEIK | –
